*1 amine or outer side, *2 acyl side, *3 side chain or, on linkers, in order; H or OH if unused. Side-chain parts run from the residue outwards. The star is where a group is joined. C18 diacid = O=C(O)CCCCCCCCCCCCCCCCC(=O)*; γGlu = O=C(O)[C@H](CCC(=O)[*:2])N[*:1]; Isovaleryl = CC(C)CC(=O)*; Ahx = NCCCCCC(=O)O
T1: human NPY2 receptor (human, UniProt P49146 1-381)
T1 construct: whole, on cells; also called hNPY2-R; hNPY2R
T1 sequence (looked up): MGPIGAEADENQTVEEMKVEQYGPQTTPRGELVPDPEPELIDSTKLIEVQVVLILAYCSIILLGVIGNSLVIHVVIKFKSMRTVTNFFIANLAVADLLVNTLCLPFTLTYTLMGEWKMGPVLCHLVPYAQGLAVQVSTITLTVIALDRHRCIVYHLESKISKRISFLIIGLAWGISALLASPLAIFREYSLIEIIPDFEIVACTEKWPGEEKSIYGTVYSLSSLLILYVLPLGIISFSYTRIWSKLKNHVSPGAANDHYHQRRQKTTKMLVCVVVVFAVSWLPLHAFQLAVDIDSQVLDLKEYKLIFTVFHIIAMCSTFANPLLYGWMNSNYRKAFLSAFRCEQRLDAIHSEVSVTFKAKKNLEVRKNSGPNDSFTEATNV

B1: Compound 157 (peptide)
peptide: Isovaleryl-APAK([Ahx-γGlu-C18 diacid])PEEAASPEELQRYYVALRHYYNWLTRQRY-NH2
SMILES: CC(C)CC(=O)N[C@@H](C)C(=O)N1CCC[C@H]1C(=O)N[C@@H](C)C(=O)N[C@@H](CCCCNC(=O)CCCCCNC(=O)CC[C@H](NC(=O)CCCCCCCCCCCCCCCCC(=O)O)C(=O)O)C(=O)N1CCC[C@H]1C(=O)N[C@@H](CCC(=O)O)C(=O)N[C@@H](CCC(=O)O)C(=O)N[C@@H](C)C(=O)N[C@@H](C)C(=O)N[C@@H](CO)C(=O)N1CCC[C@H]1C(=O)N[C@@H](CCC(=O)O)C(=O)N[C@@H](CCC(=O)O)C(=O)N[C@@H](CC(C)C)C(=O)N[C@@H](CCC(N)=O)C(=O)N[C@@H](CCCNC(=N)N)C(=O)N[C@@H](Cc1ccc(O)cc1)C(=O)N[C@@H](Cc1ccc(O)cc1)C(=O)N[C@H](C(=O)N[C@@H](C)C(=O)N[C@@H](CC(C)C)C(=O)N[C@@H](CCCNC(=N)N)C(=O)N[C@@H](Cc1c[nH]cn1)C(=O)N[C@@H](Cc1ccc(O)cc1)C(=O)N[C@@H](Cc1ccc(O)cc1)C(=O)N[C@@H](CC(N)=O)C(=O)N[C@@H](Cc1c[nH]c2ccccc12)C(=O)N[C@@H](CC(C)C)C(=O)N[C@H](C(=O)N[C@@H](CCCNC(=N)N)C(=O)N[C@@H](CCC(N)=O)C(=O)N[C@@H](CCCNC(=N)N)C(=O)N[C@@H](Cc1ccc(O)cc1)C(N)=O)[C@@H](C)O)C(C)C
B2: Compound 162 (peptide)
peptide: Isovaleryl-APEK([Ahx-γGlu-C18 diacid])PEEDATPEEEQRYYVSLRHYYNWLTRQRY-NH2
SMILES: CC(C)CC(=O)N[C@@H](C)C(=O)N1CCC[C@H]1C(=O)N[C@@H](CCC(=O)O)C(=O)N[C@@H](CCCCNC(=O)CCCCCNC(=O)CC[C@H](NC(=O)CCCCCCCCCCCCCCCCC(=O)O)C(=O)O)C(=O)N1CCC[C@H]1C(=O)N[C@@H](CCC(=O)O)C(=O)N[C@@H](CCC(=O)O)C(=O)N[C@@H](CC(=O)O)C(=O)N[C@@H](C)C(=O)N[C@H](C(=O)N1CCC[C@H]1C(=O)N[C@@H](CCC(=O)O)C(=O)N[C@@H](CCC(=O)O)C(=O)N[C@@H](CCC(=O)O)C(=O)N[C@@H](CCC(N)=O)C(=O)N[C@@H](CCCNC(=N)N)C(=O)N[C@@H](Cc1ccc(O)cc1)C(=O)N[C@@H](Cc1ccc(O)cc1)C(=O)N[C@H](C(=O)N[C@@H](CO)C(=O)N[C@@H](CC(C)C)C(=O)N[C@@H](CCCNC(=N)N)C(=O)N[C@@H](Cc1c[nH]cn1)C(=O)N[C@@H](Cc1ccc(O)cc1)C(=O)N[C@@H](Cc1ccc(O)cc1)C(=O)N[C@@H](CC(N)=O)C(=O)N[C@@H](Cc1c[nH]c2ccccc12)C(=O)N[C@@H](CC(C)C)C(=O)N[C@H](C(=O)N[C@@H](CCCNC(=N)N)C(=O)N[C@@H](CCC(N)=O)C(=O)N[C@@H](CCCNC(=N)N)C(=O)N[C@@H](Cc1ccc(O)cc1)C(N)=O)[C@@H](C)O)C(C)C)[C@@H](C)O
B3: Compound 161 (peptide)
peptide: Isovaleryl-APAK([Ahx-γGlu-C18 diacid])PEEAAEPEELQRYYVALRHYYNWLTRQRY-NH2
SMILES: CC(C)CC(=O)N[C@@H](C)C(=O)N1CCC[C@H]1C(=O)N[C@@H](C)C(=O)N[C@@H](CCCCNC(=O)CCCCCNC(=O)CC[C@H](NC(=O)CCCCCCCCCCCCCCCCC(=O)O)C(=O)O)C(=O)N1CCC[C@H]1C(=O)N[C@@H](CCC(=O)O)C(=O)N[C@@H](CCC(=O)O)C(=O)N[C@@H](C)C(=O)N[C@@H](C)C(=O)N[C@@H](CCC(=O)O)C(=O)N1CCC[C@H]1C(=O)N[C@@H](CCC(=O)O)C(=O)N[C@@H](CCC(=O)O)C(=O)N[C@@H](CC(C)C)C(=O)N[C@@H](CCC(N)=O)C(=O)N[C@@H](CCCNC(=N)N)C(=O)N[C@@H](Cc1ccc(O)cc1)C(=O)N[C@@H](Cc1ccc(O)cc1)C(=O)N[C@H](C(=O)N[C@@H](C)C(=O)N[C@@H](CC(C)C)C(=O)N[C@@H](CCCNC(=N)N)C(=O)N[C@@H](Cc1c[nH]cn1)C(=O)N[C@@H](Cc1ccc(O)cc1)C(=O)N[C@@H](Cc1ccc(O)cc1)C(=O)N[C@@H](CC(N)=O)C(=O)N[C@@H](Cc1c[nH]c2ccccc12)C(=O)N[C@@H](CC(C)C)C(=O)N[C@H](C(=O)N[C@@H](CCCNC(=N)N)C(=O)N[C@@H](CCC(N)=O)C(=O)N[C@@H](CCCNC(=N)N)C(=O)N[C@@H](Cc1ccc(O)cc1)C(N)=O)[C@@H](C)O)C(C)C
B4: Compound 158 (peptide)
peptide: Isovaleryl-APEK([Ahx-γGlu-C18 diacid])PPEAASPEEIQRYYVALRHYYNWLTRQRY-NH2
SMILES: CC[C@H](C)[C@H](NC(=O)[C@H](CCC(=O)O)NC(=O)[C@H](CCC(=O)O)NC(=O)[C@@H]1CCCN1C(=O)[C@H](CO)NC(=O)[C@H](C)NC(=O)[C@H](C)NC(=O)[C@H](CCC(=O)O)NC(=O)[C@@H]1CCCN1C(=O)[C@@H]1CCCN1C(=O)[C@H](CCCCNC(=O)CCCCCNC(=O)CC[C@H](NC(=O)CCCCCCCCCCCCCCCCC(=O)O)C(=O)O)NC(=O)[C@H](CCC(=O)O)NC(=O)[C@@H]1CCCN1C(=O)[C@H](C)NC(=O)CC(C)C)C(=O)N[C@@H](CCC(N)=O)C(=O)N[C@@H](CCCNC(=N)N)C(=O)N[C@@H](Cc1ccc(O)cc1)C(=O)N[C@@H](Cc1ccc(O)cc1)C(=O)N[C@H](C(=O)N[C@@H](C)C(=O)N[C@@H](CC(C)C)C(=O)N[C@@H](CCCNC(=N)N)C(=O)N[C@@H](Cc1c[nH]cn1)C(=O)N[C@@H](Cc1ccc(O)cc1)C(=O)N[C@@H](Cc1ccc(O)cc1)C(=O)N[C@@H](CC(N)=O)C(=O)N[C@@H](Cc1c[nH]c2ccccc12)C(=O)N[C@@H](CC(C)C)C(=O)N[C@H](C(=O)N[C@@H](CCCNC(=N)N)C(=O)N[C@@H](CCC(N)=O)C(=O)N[C@@H](CCCNC(=N)N)C(=O)N[C@@H](Cc1ccc(O)cc1)C(N)=O)[C@@H](C)O)C(C)C
B5: Compound 159 (peptide)
peptide: Isovaleryl-APEK([Ahx-γGlu-C18 diacid])PEADAEPEELQRYYISLRHYYNWLTRQRY-NH2
SMILES: CC[C@H](C)[C@H](NC(=O)[C@H](Cc1ccc(O)cc1)NC(=O)[C@H](Cc1ccc(O)cc1)NC(=O)[C@H](CCCNC(=N)N)NC(=O)[C@H](CCC(N)=O)NC(=O)[C@H](CC(C)C)NC(=O)[C@H](CCC(=O)O)NC(=O)[C@H](CCC(=O)O)NC(=O)[C@@H]1CCCN1C(=O)[C@H](CCC(=O)O)NC(=O)[C@H](C)NC(=O)[C@H](CC(=O)O)NC(=O)[C@H](C)NC(=O)[C@H](CCC(=O)O)NC(=O)[C@@H]1CCCN1C(=O)[C@H](CCCCNC(=O)CCCCCNC(=O)CC[C@H](NC(=O)CCCCCCCCCCCCCCCCC(=O)O)C(=O)O)NC(=O)[C@H](CCC(=O)O)NC(=O)[C@@H]1CCCN1C(=O)[C@H](C)NC(=O)CC(C)C)C(=O)N[C@@H](CO)C(=O)N[C@@H](CC(C)C)C(=O)N[C@@H](CCCNC(=N)N)C(=O)N[C@@H](Cc1c[nH]cn1)C(=O)N[C@@H](Cc1ccc(O)cc1)C(=O)N[C@@H](Cc1ccc(O)cc1)C(=O)N[C@@H](CC(N)=O)C(=O)N[C@@H](Cc1c[nH]c2ccccc12)C(=O)N[C@@H](CC(C)C)C(=O)N[C@H](C(=O)N[C@@H](CCCNC(=N)N)C(=O)N[C@@H](CCC(N)=O)C(=O)N[C@@H](CCCNC(=N)N)C(=O)N[C@@H](Cc1ccc(O)cc1)C(N)=O)[C@@H](C)O

Target: T1, human NPY2 receptor
Experiment: RLB: displacement of 125I-PYY(1-36) from hNPY2R membranes

| Binder | Ki [nM] |
| --- | --- |
| B1 | 1.68 |
| B2 | 14.9 |
| B3 | 4 |
| B4 | 0.58 |
| B5 | 2.75 |

Reference: patent US20260015399A1 (Boehringer Ingelheim, published 2026)
